Four molecules from paper PMC12757795, “WRKY45 is a negative regulator of Botrytis cinerea resistance through the JA/ET signaling pathway in Arabidopsis” can be followed below.

Sequences and labels used below:
B1: ORA59-W2 (dsDNA)
DNA 1: TAATCGCATCGCATGTTTGACCCATTTAGCCGCATAT
DNA 2: ATATGCGGCTAAATGGGTCAAACATGCGATGCGATTA
B2: ORA59-W1-M (dsDNA)
DNA 1: CGATTTAGCCGCATGTTTTTCCTATTTTGCCCACATA
DNA 2: TATGTGGGCAAAATAGGAAAAACATGCGGCTAAATCG
B3: ORA59-W6 (dsDNA)
DNA 1: GAAACCGACGTTAGGTTTGACTATTTTATTTACAGTC
DNA 2: GACTGTAAATAAAATAGTCAAACCTAACGTCGGTTTC
B4: ORA59-W3 (dsDNA)
DNA 1: CCATCTAACAACAAATTTGACCAAAAGTTTCCTTATT
DNA 2: AATAAGGAAACTTTTGGTCAAATTTGTTGTTAGATGG

The target of the data set is GST-WRKY45 (UniProt Q9S763 1-147). Kind of data set: EMSA; Beyotime chemiluminescent EMSA kit binding buffer (composition, salt and pH not stated), room temperature, 20 min, 6% native PAGE; unlabeled competitor 5x and 50x or 50-100x (Methods). As to conditions: protein: recombinant; tags: GST; label: biotin (end); blunt.
GST-WRKY45, sequence (Q9S763 whole entry): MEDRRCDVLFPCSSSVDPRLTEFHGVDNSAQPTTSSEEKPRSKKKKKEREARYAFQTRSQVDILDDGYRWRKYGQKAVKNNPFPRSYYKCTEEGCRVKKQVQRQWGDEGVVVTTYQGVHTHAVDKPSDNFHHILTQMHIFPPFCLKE
As for B1, the binding result is “binds”.

On to B2, for which the binding result was “no binding”.

Turning to B3, the binding result was “binds”.

B4: the binding result is listed as “binds”.
